Test results: US5955579, “Islet-specific homeoprotein and transcriptional regulator of insulin gene expression, HOXB13” (Strang Cancer Prevention Center)

Target: HoxB13 (CIX-1, Isl-3) (Rattus norvegicus)
Experiment: EMSA; described as high affinity; competed by 50 ng unlabeled FLAT; 50 mM KCl, 20 mM HEPES pH 7.8, 1 mM EDTA, 20% glycerol, room temperature
Details: tags: GST fusion (pGEX-3X) expressed in E. coli BL21, GST removed by factor Xa; GATC 5' overhangs filled in
Method: For gel shift assays, the labeled fragment was incubated 15 minutes at room temperature with buffer alone (50 mM KCI, 20 mM HEPES pH 7.8, 1 mM EDTA, 20% glycerol, 1 mM DTt and 1 mM PMSF), 1 μl bacterially expressed HoxB13 (see Example 3; "rCIX-1" in FIG. 4), 1 μl HoxB13 and 50 ng unlabeled FLAT DNA ("rCIX-1+50 ng FLAT" in FIG. 4), 5 μg Hela cell nuclear extract, 5 μg RIN cell nuclear extract, 5 μg RIN extract and 50 ng FLAT, 5 μg HeLa extract and 50 ng FLAT (respectively, as shown in FIG. 4). The samples were then run on a 5% acrylamide gel in 0.5× TBE.

Sequence of HoxB13 (CIX-1, Isl-3) (Rattus norvegicus) (chain, as listed by the source): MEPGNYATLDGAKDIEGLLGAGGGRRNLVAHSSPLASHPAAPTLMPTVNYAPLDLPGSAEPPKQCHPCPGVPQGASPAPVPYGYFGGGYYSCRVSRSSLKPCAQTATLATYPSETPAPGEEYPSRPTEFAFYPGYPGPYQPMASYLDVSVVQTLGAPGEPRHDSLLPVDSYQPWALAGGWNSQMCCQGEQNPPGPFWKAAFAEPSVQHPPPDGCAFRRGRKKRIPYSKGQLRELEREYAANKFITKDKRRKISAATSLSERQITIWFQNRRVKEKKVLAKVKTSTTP

B1: FLAT element probe (dsDNA)
DNA 1: GATCCCCTTGTTAATAATCTAATTACCCTAGG
DNA 2: GATCCCTAGGGTAATTAGATTATTAACAAGGG
binding result: binds
